Reference: patent publication US20130190232A1 (Novo Nordisk, published 2013)

Molecular target: T1, human beta-Klotho (human, UniProt Q86Z14 1-1044)
T1 sequence (looked up): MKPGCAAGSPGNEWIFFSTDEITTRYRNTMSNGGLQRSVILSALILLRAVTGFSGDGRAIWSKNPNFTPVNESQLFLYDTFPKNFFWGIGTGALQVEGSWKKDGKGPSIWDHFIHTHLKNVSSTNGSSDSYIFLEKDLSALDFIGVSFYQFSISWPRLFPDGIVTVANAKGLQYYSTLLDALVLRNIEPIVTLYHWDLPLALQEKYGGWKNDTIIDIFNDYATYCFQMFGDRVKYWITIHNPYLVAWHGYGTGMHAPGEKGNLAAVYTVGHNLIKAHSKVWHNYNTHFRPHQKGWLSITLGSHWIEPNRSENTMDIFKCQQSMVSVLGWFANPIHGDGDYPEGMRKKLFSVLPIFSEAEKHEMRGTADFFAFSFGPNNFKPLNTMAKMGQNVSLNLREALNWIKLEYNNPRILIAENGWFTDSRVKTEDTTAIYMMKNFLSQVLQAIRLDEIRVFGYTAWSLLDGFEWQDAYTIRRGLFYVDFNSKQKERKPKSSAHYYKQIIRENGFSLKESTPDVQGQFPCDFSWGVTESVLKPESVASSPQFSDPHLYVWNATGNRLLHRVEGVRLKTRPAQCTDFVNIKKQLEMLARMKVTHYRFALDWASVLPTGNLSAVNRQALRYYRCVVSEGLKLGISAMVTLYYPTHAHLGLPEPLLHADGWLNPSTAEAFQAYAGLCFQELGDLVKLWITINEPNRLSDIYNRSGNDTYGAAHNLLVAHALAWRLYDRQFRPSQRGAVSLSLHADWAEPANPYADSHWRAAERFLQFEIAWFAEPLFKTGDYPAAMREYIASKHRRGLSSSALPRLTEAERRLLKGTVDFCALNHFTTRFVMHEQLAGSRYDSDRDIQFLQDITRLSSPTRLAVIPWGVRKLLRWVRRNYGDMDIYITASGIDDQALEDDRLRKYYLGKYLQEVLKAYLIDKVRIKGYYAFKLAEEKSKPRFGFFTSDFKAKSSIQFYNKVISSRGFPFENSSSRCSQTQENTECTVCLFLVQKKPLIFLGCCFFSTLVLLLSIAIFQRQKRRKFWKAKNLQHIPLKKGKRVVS
Experiment: cell-based or functional assay

Molecule	pERK-HEK293-Beta-klotho without HSA [EC50 (nM)] Mean Value
N-alpha-(4-{[2-(2-{2-[2-(2-{2-[(S)-4-carboxy-4-(17-carboxyheptadecanoylamino)butyrylamino]ethoxy}ethoxy)acetylamino]ethoxy}ethoxy)acetylamino]methyl}benzyl) [K56R, K59R, K69R, D102T, D121Q, K122R, L166F, S167G, M168L, G170T] Ala-FGF21 (Compound III) (from UniProt Q9NSA1 28-209) (ligand)	1 nM
[Q28R, K56R, K59R, K69R, D102T, D121Q, K122R, L166F, S167G, M168L, G170T] Ala-FGF21 (from UniProt Q9NSA1 28-209) (ligand)	0.8 nM
Met-FGF21 (Compound A) (ligand) MHPIPDSSPLLQFGGQVRQRYLYTDDAQQTEAHLEIREDGTVGGAADQSPESLLQLKALKPGVIQILGVKTSRFLCQRPDGALYGSLHFDPEACSFRELLLEDGYNVYQSEAHGLPLHLPGNKSPHRDPAPRGPARFLPLPGLPPALPEPPGILAPQPPDVGSSDPLSMVGPSQGRSPSYAS	1.6 nM
[S71C, N121Q, L166F, S167G, M168L, 173aA, G174V, Y179F, A180E, des181]Ala-FGF21 (ligand) AHPIPDSSPLLQFGGQVRQRYLYTDDAQQTEAHLEIREDGTVGGAADQSPESLLQLKALKPGVIQILGVKTCRFLCQRPDGALYGSLHFDPEACSFRELLLEDGYNVYQSEAHGLPLHLPGQKSPHRDPAPRGPARFLPLPGLPPALPEPPGILAPQPPDVGSSDPFGLVGPSQAVRSPSFE	0.4 nM
[N121Q, L166F, S167G, M168L, P171L, S172E, Q173A, G174V, Y179F, A180E, des181]Ala-FGF21 (ligand) AHPIPDSSPLLQFGGQVRQRYLYTDDAQQTEAHLEIREDGTVGGAADQSPESLLQLKALKPGVIQILGVKTSRFLCQRPDGALYGSLHFDPEACSFRELLLEDGYNVYQSEAHGLPLHLPGQKSPHRDPAPRGPARFLPLPGLPPALPEPPGILAPQPPDVGSSDPFGLVGLEAVRSPSFE	0.7 nM
[N121Q] Ala-FGF21 (ligand) AHPIPDSSPLLQFGGQVRQRYLYTDDAQQTEAHLEIREDGTVGGAADQSPESLLQLKALKPGVIQILGVKTSRFLCQRPDGALYGSLHFDPEACSFRELLLEDGYNVYQSEAHGLPLHLPGQKSPHRDPAPRGPARFLPLPGLPPALPEPPGILAPQPPDVGSSDPLSMVGPSQGRSPSYAS	2.3 nM
[K56R, K59R, K69R, K122R]Gly-FGF21 (ligand) GHPIPDSSPLLQFGGQVRQRYLYTDDAQQTEAHLEIREDGTVGGAADQSPESLLQLRALRPGVIQILGVRTSRFLCQRPDGALYGSLHFDPEACSFRELLLEDGYNVYQSEAHGLPLHLPGNRSPHRDPAPRGPARFLPLPGLPPALPEPPGILAPQPPDVGSSDPLSMVGPSQGRSPSYAS	8.3 nM
[S71C, N121Q, L166F, S167G, M168L, P171L, S172E, Q173A, G174V, Y179F, A180E, des181]Ala-FGF21 (ligand) AHPIPDSSPLLQFGGQVRQRYLYTDDAQQTEAHLEIREDGTVGGAADQSPESLLQLKALKPGVIQILGVKTCRFLCQRPDGALYGSLHFDPEACSFRELLLEDGYNVYQSEAHGLPLHLPGQKSPHRDPAPRGPARFLPLPGLPPALPEPPGILAPQPPDVGSSDPFGLVGLEAVRSPSFE	0.6 nM
[S71C, N121Q, L166F, S167G, M168L, des170, 173aA, G174V, Y179F, A180E, des181]Ala-FGF21 (ligand) AHPIPDSSPLLQFGGQVRQRYLYTDDAQQTEAHLEIREDGTVGGAADQSPESLLQLKALKPGVIQILGVKTCRFLCQRPDGALYGSLHFDPEACSFRELLLEDGYNVYQSEAHGLPLHLPGQKSPHRDPAPRGPARFLPLPGLPPALPEPPGILAPQPPDVGSSDPFGLVPSQAVRSPSFE	1.8 nM
N-alpha-bis-(4-{[2-(2-{2-[2-(2-{2-[(S)-4-carboxy-4-(17-carboxyheptadecanoylamino)butyrylamino]ethoxy}ethoxy)acetylamino]ethoxy}ethoxy)acetylamino]methyl}benzyl) … (ligand, alpha amino group of the N-terminal Gly carries two 4-{[2-(2-{2-[2-(2-{2-[(S)-4-carboxy-4-(17-carboxyheptadecanoylamino)butyrylamino]ethoxy}ethoxy)acetylamino]ethoxy}ethoxy)acetylamino]methyl}benzyl groups) GHPIPDSSPLLQFGGQVRQRYLYTDDAQQTEAHLEIREDGTVGGAADQSPESLLQLRALRPGVIQILGVRTSRFLCQRPDGALYGSLHFDPEACSFRELLLEDGYNVYQSEAHGLPLHLPGNRSPHRDPAPRGPARFLPLPGLPPALPEPPGILAPQPPDVGSSDPLSMVGPSQGRSPSYAS	4.6 nM
N-alpha(4-{[2-(2-{2-[2-(2-{2-[(S)-4-Carboxy-4-(17-carboxyheptadecanoylamino)butyrylamino]-ethoxy}ethoxy)acetylamino]ethoxy}ethoxy)acetylamino]methyl}benzyl) … (ligand, alpha amino group of the N-terminal Ala carries one 4-{[2-(2-{2-[2-(2-{2-[(S)-4-carboxy-4-(17-carboxyheptadecanoylamino)butyrylamino]ethoxy}ethoxy)acetylamino]ethoxy}ethoxy)acetylamino]methyl}benzyl group) AHPIPDSSPLLQFGGQVRQRYLYTDDAQQTEAHLEIREDGTVGGAADQSPESLLQLKALKPGVIQILGVKTCRFLCQRPDGALYGSLHFDPEACSFRELLLEDGYNVYQSEAHGLPLHLPGQKSPHRDPAPRGPARFLPLPGLPPALPEPPGILAPQPPDVGSSDPFGLVGLEAVRSPSFE	0.4 nM
[N121Q]Met-FGF21 (ligand) MHPIPDSSPLLQFGGQVRQRYLYTDDAQQTEAHLEIREDGTVGGAADQSPESLLQLKALKPGVIQILGVKTSRFLCQRPDGALYGSLHFDPEACSFRELLLEDGYNVYQSEAHGLPLHLPGQKSPHRDPAPRGPARFLPLPGLPPALPEPPGILAPQPPDVGSSDPLSMVGPSQGRSPSYAS	1 nM
